Tests used:
[1] = target: raccoon dog ACE2 (rdACE2), peptidase domain (PD), wild type (raccoon dog) (UniProt B4XEP4); assay: SPR
[2] = target: raccoon dog ACE2 (rdACE2), peptidase domain (PD), wild type (raccoon dog) (UniProt B4XEP4); assay: SPR; BIAcore […], 25°C, PBST (0.005% Tween-20 in PBS); […], single-cycle; 1:1 Langmuir model; […]
[3] = target: SARS-CoV-2 Alpha variant spike RBD (UniProt P0DTC2); assay: SPR

| Substance | fold decrease of affinity against PT RBD [1] [fold] | Kd [3] [nM] | other results |
| --- | --- | --- | --- |
| SARS-CoV-2 Omicron BA.2 spike RBD (from UniProt P0DTC2 319-541) (domain or fragment) | > 10 | – | – |
| SARS-CoV-2 Omicron XBB spike RBD (from UniProt P0DTC2 319-541) (domain or fragment) | – | – | fold decrease of affinity against PT RBD [2]: 10 fold |
| SARS-CoV-2 PT RBD K417N variant (from UniProt P0DTC2 319-541) (domain or fragment) | > 6 | – | – |
| raccoon dog ACE2 (rdACE2), peptidase domain (PD), wild type (from UniProt B4XEP4) E38D | – | 12.4 | – |
| raccoon dog ACE2 (rdACE2), peptidase domain (PD), wild type (from UniProt B4XEP4) L24Q | – | 42.9 | – |
| raccoon dog ACE2 (rdACE2), peptidase domain (PD), wild type (from UniProt B4XEP4) R353K | – | 59.4 | – |

Reference: publication PMC11620640
